Results: US20210371503A1
Like-named read-outs stand apart in the source and are kept apart here.

Legend:
[1] = biological target: the antigen (SARS-CoV-2 spike (S) protein, form not stated in Example 13) (SARS-CoV-2) (UniProt P0DTC2)
[2] = biological target: the antigen (SARS-CoV-2 spike (S) protein, form not stated in Example 13) (SARS-CoV-2) (UniProt P0DTC2); test: SPR relative binding activity; reference standard, initial
[3] = biological target: the antigen (SARS-CoV-2 spike (S) protein, form not stated in Example 13) (SARS-CoV-2) (UniProt P0DTC2); test: SPR relative binding activity; formulation F5, control unnebulized
[4] = biological target: the antigen (SARS-CoV-2 spike (S) protein, form not stated in Example 13) (SARS-CoV-2) (UniProt P0DTC2); test: SPR relative binding activity; formulation F5, nebulized with Droh
[5] = biological target: the antigen (SARS-CoV-2 spike (S) protein, form not stated in Example 13) (SARS-CoV-2) (UniProt P0DTC2); test: SPR relative binding activity; formulation F5, nebulized with Pariboy
[6] = biological target: the antigen (SARS-CoV-2 spike (S) protein, form not stated in Example 13) (SARS-CoV-2) (UniProt P0DTC2); test: SPR relative binding activity; formulation F5, nebulized with eFlow-Rapid
[7] = biological target: the antigen (SARS-CoV-2 spike (S) protein, form not stated in Example 13) (SARS-CoV-2) (UniProt P0DTC2); test: SPR relative binding activity; formulation F5, nebulized with Aerogen Solo
[8] = biological target: the antigen (SARS-CoV-2 spike (S) protein, form not stated in Example 13) (SARS-CoV-2) (UniProt P0DTC2); test: SPR relative binding activity; undiluted 50 mg/mL, formulation F5, initial
[9] = biological target: the antigen (SARS-CoV-2 spike (S) protein, form not stated in Example 13) (SARS-CoV-2) (UniProt P0DTC2); test: SPR relative binding activity; undiluted 50 mg/mL, formulation F6, initial
[10] = biological target: the antigen (SARS-CoV-2 spike (S) protein, form not stated in Example 13) (SARS-CoV-2) (UniProt P0DTC2); test: SPR relative binding activity; undiluted 50 mg/mL, formulation F7, initial
[11] = biological target: the antigen (SARS-CoV-2 spike (S) protein, form not stated in Example 13) (SARS-CoV-2) (UniProt P0DTC2); test: SPR relative binding activity; undiluted 50 mg/mL, formulation F8, initial
[12] = biological target: the antigen (SARS-CoV-2 spike (S) protein, form not stated in Example 13) (SARS-CoV-2) (UniProt P0DTC2); test: SPR relative binding activity; undiluted 50 mg/mL, formulation F5, nebulized
[13] = biological target: the antigen (SARS-CoV-2 spike (S) protein, form not stated in Example 13) (SARS-CoV-2) (UniProt P0DTC2); test: SPR relative binding activity; undiluted 50 mg/mL, formulation F6, nebulized
[14] = biological target: the antigen (SARS-CoV-2 spike (S) protein, form not stated in Example 13) (SARS-CoV-2) (UniProt P0DTC2); test: SPR relative binding activity; undiluted 50 mg/mL, formulation F7, nebulized
[15] = biological target: the antigen (SARS-CoV-2 spike (S) protein, form not stated in Example 13) (SARS-CoV-2) (UniProt P0DTC2); test: SPR relative binding activity; undiluted 50 mg/mL, formulation F8, nebulized
[16] = biological target: the antigen (SARS-CoV-2 spike (S) protein, form not stated in Example 13) (SARS-CoV-2) (UniProt P0DTC2); test: SPR relative binding activity; 1:5 diluted 10 mg/mL, formulation F5, initial
[17] = biological target: the antigen (SARS-CoV-2 spike (S) protein, form not stated in Example 13) (SARS-CoV-2) (UniProt P0DTC2); test: SPR relative binding activity; 1:5 diluted 10 mg/mL, formulation F6, initial
[18] = biological target: the antigen (SARS-CoV-2 spike (S) protein, form not stated in Example 13) (SARS-CoV-2) (UniProt P0DTC2); test: SPR relative binding activity; 1:5 diluted 10 mg/mL, formulation F7, initial
[19] = biological target: the antigen (SARS-CoV-2 spike (S) protein, form not stated in Example 13) (SARS-CoV-2) (UniProt P0DTC2); test: SPR relative binding activity; 1:5 diluted 10 mg/mL, formulation F8, initial
[20] = biological target: the antigen (SARS-CoV-2 spike (S) protein, form not stated in Example 13) (SARS-CoV-2) (UniProt P0DTC2); test: SPR relative binding activity; 1:5 diluted 10 mg/mL, formulation F5, nebulized
[21] = biological target: the antigen (SARS-CoV-2 spike (S) protein, form not stated in Example 13) (SARS-CoV-2) (UniProt P0DTC2); test: SPR relative binding activity; 1:5 diluted 10 mg/mL, formulation F6, nebulized
[22] = biological target: the antigen (SARS-CoV-2 spike (S) protein, form not stated in Example 13) (SARS-CoV-2) (UniProt P0DTC2); test: SPR relative binding activity; 1:5 diluted 10 mg/mL, formulation F7, nebulized
[23] = biological target: the antigen (SARS-CoV-2 spike (S) protein, form not stated in Example 13) (SARS-CoV-2) (UniProt P0DTC2); test: SPR relative binding activity; 1:5 diluted 10 mg/mL, formulation F8, nebulized

Chain of DZIF-10c (antibody) (VH): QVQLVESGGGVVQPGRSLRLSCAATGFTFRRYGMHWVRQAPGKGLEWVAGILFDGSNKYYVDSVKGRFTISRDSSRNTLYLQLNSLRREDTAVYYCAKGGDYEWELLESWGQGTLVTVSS
Chain of DZIF-10c (antibody) (VL): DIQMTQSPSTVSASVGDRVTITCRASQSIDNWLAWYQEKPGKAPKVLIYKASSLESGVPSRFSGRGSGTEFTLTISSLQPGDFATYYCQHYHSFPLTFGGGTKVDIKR

## DZIF-10c (antibody)
[1]
  SPR Binding Activity (RLCA %): 100%
[2]
  SPR Binding Activity (RLCA %): 100%
[3]
  SPR Binding Activity (RLCA %): 100%
[4]
  SPR Binding Activity (RLCA %): 100%
[5]
  SPR Binding Activity (RLCA %): 100%
[6]
  SPR Binding Activity (RLCA %): 100%
[7]
  SPR Binding Activity (RLCA %): 100%
[8]
  SPR Binding Activity (RLCA %): 96%
[9]
  SPR Binding Activity (RLCA %): 95%
[10]
  SPR Binding Activity (RLCA %): 96%
[11]
  SPR Binding Activity (RLCA %): 96%
[12]
  SPR Binding Activity (RLCA %): 96%
[13]
  SPR Binding Activity (RLCA %): 96%
[14]
  SPR Binding Activity (RLCA %): 96%
[15]
  SPR Binding Activity (RLCA %): 96%
[16]
  SPR Binding Activity (RLCA %): 96%
[17]
  SPR Binding Activity (RLCA %): 96%
[18]
  SPR Binding Activity (RLCA %): 96%
[19]
  SPR Binding Activity (RLCA %): 96%
[20]
  SPR Binding Activity (RLCA %): 96%
[21]
  SPR Binding Activity (RLCA %): 96%
[22]
  SPR Binding Activity (RLCA %): 96%
[23]
  SPR Binding Activity (RLCA %): 96%
